Measurements as given in paper PMC4858151, “Phosphorylation of Human Choline Kinase Beta by Protein Kinase A: Its Impact on Activity and Inhibition” (PLoS ONE, 2016).

Tests used:
Assay type in all cases: biochemical, Homo sapiens
[1] = substrate: C[N+](C)(C)CCO; assay: Michaelis-Menten kinetics (Km), PK-LDH coupled assay; conditions: MgCl2, ATP choline binding site
[2] = substrate: NCCO; assay: as above; conditions: MgCl2, ATP
[3] = substrate: Nc1ncnc2c1ncn2[C@@H]1O[C@H](COP(=O)(O)OP(=O)(O)OP(=O)(O)O)[C@@H](O)[C@H]1O; assay: purified protein; conditions: MgCl2

| Protein | Km [1] [µM] | Vmax [1] [µmol/min/mg] | kcat [1] [s⁻¹] | kcat/Km [1] [M⁻¹ s⁻¹] | Km [2] [µM] | Vmax [2] [µmol/min/mg] | Km [3] [µM] | Vmax [3] [µmol/min/mg] | kcat [3] [s⁻¹] | kcat/Km [3] [M⁻¹ s⁻¹] | kcat [2] [s⁻¹] | kcat/Km [2] [M⁻¹ s⁻¹] |
| --- | --- | --- | --- | --- | --- | --- | --- | --- | --- | --- | --- | --- |
| choline kinase beta (CKβ) (Homo sapiens) (protein, purified recombinant unphosphorylated CKβ) AAEATAVAGSGAVGGCLAKDGLQQSKCPDTTPKRRRASSLSRDAERRAYQWCREYLGGAWRRVQPEELRVYPVSGGLSNLLFRCSLPDHLPSVGEEPREVLLRLYGAILQGVDSLVLESVMFAILAERSLGPQLYGVFPEGRLEQYIPSRPLKTQELREPVLSAAIATKMAQFHGMEMPFTKEPHWLFGTMERYLKQIQDLPPTGLPEMNLLEMYSLKDEMGNLRKLLESTPSPVVFCHNDIQEGNILLLSEPENADSLMLVDFEYSSYNYRGFDIGNHFCEWVYDYTHEEWPFYKARPTDYPTQEQQLHFIRHYLAEAKKGETLSQEEQRKLEEDLLVEVSRYALASHFFWGLWSILQASMSTIEFGYLDYAQSRFQFYFQQKGQLTSVHSSS | 420 ± 60 | 64.3 | 48.2 | 115000 | 260 ± 10 | 14.3 | 650 ± 30 | 72.5 | 21.5 | 39100 |  |  |
| choline kinase beta (CKβ) (Homo sapiens; S39D/S40D) (protein, purified S39D/S40D CKβ) AAEATAVAGSGAVGGCLAKDGLQQSKCPDTTPKRRRADDLSRDAERRAYQWCREYLGGAWRRVQPEELRVYPVSGGLSNLLFRCSLPDHLPSVGEEPREVLLRLYGAILQGVDSLVLESVMFAILAERSLGPQLYGVFPEGRLEQYIPSRPLKTQELREPVLSAAIATKMAQFHGMEMPFTKEPHWLFGTMERYLKQIQDLPPTGLPEMNLLEMYSLKDEMGNLRKLLESTPSPVVFCHNDIQEGNILLLSEPENADSLMLVDFEYSSYNYRGFDIGNHFCEWVYDYTHEEWPFYKARPTDYPTQEQQLHFIRHYLAEAKKGETLSQEEQRKLEEDLLVEVSRYALASHFFWGLWSILQASMSTIEFGYLDYAQSRFQFYFQQKGQLTSVHSSS | 460 ± 60 | 60.4 | 45.3 | 98500 | 570 ± 20 | 28.4 | 585.3 ± 30 | 67.3 | 21.3 | 37400 | 45.3 | 98500 |
